Like-named read-outs stand apart in the source and are kept apart here.
How the values were obtained:
[1] = molecular target: C-terminal domain (CTD) of HIV-1 capsid (CA), wild type (HIV-1 (strain NL4-3)); experiment: ITC; dilution of CTD (ca. 250 uM) into buffer with 350 uM NYAD-203; 25 mM sodium phosphate pH 7.3, 30 C; apparent; dimer to monomers
[2] = molecular target: C-terminal domain (CTD) of HIV-1 capsid (CA), wild type (HIV-1 (strain NL4-3)); experiment: ITC; dilution of CTD (ca. 250 uM) into buffer with 50 uM NYAD-203; 25 mM sodium phosphate pH 7.3, 30 C; apparent; dimer to monomers
[3] = molecular target: C-terminal domain (CTD) of HIV-1 capsid (CA), wild type (HIV-1 (strain NL4-3)); experiment: ITC; dilution of CTD (ca. 250 uM) into buffer with 200 uM NYAD-203; 25 mM sodium phosphate pH 7.3, 30 C; apparent; dimer to monomers
[4] = molecular target: C-terminal domain (CTD) of HIV-1 capsid (CA), wild type (HIV-1 (strain NL4-3)); experiment: ITC; dilution of CTD (ca. 250 uM in the syringe, 10 ul injections) into buffer without peptide; 25 mM sodium phosphate pH 7.3, 30 C; dimer to monomers
[5] = molecular target: HIV-1 capsid CTD CTD (Human immunodeficiency virus 1) (UniProt O93182); conditions: cited from earlier work
HIV-1 capsid CTD CTD (Human immunodeficiency virus 1), sequence (O93182 278-363): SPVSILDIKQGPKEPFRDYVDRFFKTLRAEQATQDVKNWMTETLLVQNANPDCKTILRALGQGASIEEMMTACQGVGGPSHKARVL

[6] = molecular target: HIV-1 capsid CA (Human immunodeficiency virus 1) (UniProt O93182); conditions: cited from earlier work
[7] = molecular target: C-terminal domain (CTD) of HIV-1 capsid (CA), wild type (HIV-1 (strain NL4-3)); experiment: ITC; Ki worked out from the rise of the apparent dimer dissociation constant of CTD with the NYAD-203 concentration, extrapolated to low (zero) peptide concentration; pH 7.3, 30 C
[8] = molecular target: C-terminal domain (CTD) of HIV-1 capsid (CA), wild type (HIV-1 (strain NL4-3)); experiment: as above; remark: listed apart in the source
[9] = molecular target: C-terminal domain (CTD) of HIV-1 capsid (CA), wild type (HIV-1 (strain NL4-3)); experiment: NMR titration

CAC1 peptide, sequence (O93182 307-326): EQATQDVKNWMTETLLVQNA
HIV-1 capsid CA, sequence (O93182 133-363): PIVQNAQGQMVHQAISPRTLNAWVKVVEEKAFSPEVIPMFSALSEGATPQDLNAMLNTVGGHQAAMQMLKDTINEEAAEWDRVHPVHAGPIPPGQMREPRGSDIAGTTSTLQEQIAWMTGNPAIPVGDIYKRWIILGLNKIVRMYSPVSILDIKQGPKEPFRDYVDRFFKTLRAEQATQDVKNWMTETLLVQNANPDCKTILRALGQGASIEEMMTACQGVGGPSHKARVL

Substance: C-terminal domain (CTD) of HIV-1 capsid (CA), wild type (domain or fragment)
- apparent K diss with 350 uM NYAD-203 [1]: 40.5 µM
- apparent dH of dimer dissociation with 350 uM NYAD-203 [1]: 10.9 kcal/mol
- apparent K diss with 50 uM NYAD-203 [2]: 31.2 µM
- apparent dH of dimer dissociation with 50 uM NYAD-203 [2]: 9.1 kcal/mol
- apparent K diss with 200 uM NYAD-203 [3]: 33.2 µM
- apparent dH of dimer dissociation with 200 uM NYAD-203 [3]: 10.8 kcal/mol
- Kd [4]: 15.3 µM
- dH of dimer dissociation [4]: 10.7 kcal/mol

Substance: CAC1 peptide (from UniProt O93182)
- Kd [5]: 50 µM

Substance: HIV-1 capsid CA (from UniProt O93182)
- Kd [6]: 18 µM

Substance: NYAD-203, hydrocarbon-stapled dimer interface peptide, soluble analog of NYAD-201
- Ki [7]: 45 µM
- Ki [8]: 40 µM
- Kd [9]: < 10 µM

Source: paper PMC3097154, “Antiviral activity of α-helical stapled peptides designed from the HIV-1 capsid dimerization domain” (Retrovirology, 2011)
